Reference: US20230087785A1, “Leucine-Rich Repeat Kinase 2 Allosteric Modulators” (VIB VZW, priority 2020, published 2023)

Columns and labels:
[1] = molecular target: T1, endogenous mouse LRRK2 (RAW264.7 cells) (mouse, UniProt Q5S006 1-2527); experiment: immunofluorescence colocalisation of GFP-Nb and LRRK2 in RAW264.7 cells
T1 construct: also called endogenous LRRK2
Source text: (§1) To test whether Nbs can trace and visualize endogenous LRRK2 in fixed cells, we generated green fluorescent protein (GFP)-Nb fusions (fluobodies) as described before. Recently, it was shown that LRRK2 is recruited to phagosomes upon induction of phagocytosis in immune cells. Therefore, RAW264.7 cells were transfected with these fluobodies and treated with killed yeast bioparticles “zymosan” to induce phagocytosis.
RAW264.7 cells (ATCC® SC-6003™) were transfected with peGFP-Nb constructs using JetOPTIMUS (Polyplus transfection) for 24 hrs and then stimulated with Zymosan particles (Sigma Aldrich) for 30 mins ([…]). Immunostaining for LRRK2 was performed as reported before. Briefly, cells fixed with 4% (w/v) paraformaldehyde for 30 min, followed by treatment with 100% EtOH at −20° C. Sampled were permeabilized with PBS/0.5% Triton X-100 and blocked with 3% BSA. Primary antibodies (rabbit anti-LRRK2, c41-2, Abcam and mouse anti-GFP, G6539, Sigma Aldrich) were diluted in PBS containing 3% BSA and 0.5% Triton X-100 and incubated overnight at 4° C. […] Cells were washed twice with 1×PBS and mounted with Fluroshield antifade reagent with DAPI (SigmaAldrich). Images were acquired on Zeiss LSM800 confocal laser scanning microscope. Image analysis of z-scan was done using the Zeiss microscope software ZEN.

mScarlet-LRRK2 = molecular target: T2, mScarlet-LRRK2 (Homo sapiens, UniProt Q5S007, M2397T/R50H); experiment: Confocal microscopy of LRRK2 microtubule localization in HEK293 cells; assay type: cell-based; conditions: HEK293 cells co-transfected with mScarlet-LRRK2 and GFP-Nb, treated with 1 μM MLi-2
T2 construct: expressed in transfected cells; host or cells: HEK293
Source text: HEK 293 cells were co-transfected with the indicated GFP-Nbs and mScarlet-LRRK2. […] Scale bar 5 μm.
FIG. 6. […] Scale bar 5 μm.
The binding of LRRK2 to microtubules subsequently reduces the kinesin—and dynein-mediated transport along microtubules.
Recent structural information has linked LRRK2 microtubule relocalization to the conformation of the kinase domain, with a closed conformation favoring LRRK2 binding to microtubules. As a consequence, the commonly used ATP-competitive type I LRRK2 inhibitors trigger this effect. In addition, it was shown before that the WD40 domain is indispensable for LRRK2-microtubule association.
A HEK293 cell line was cultured in complete media (high-glucose Dulbecco's modified Eagle's medium, 10% fetal bovine serum and Penicillin-Streptomycin-Glutamine (Gibco)). Cells were seeded on 8-well p-Slide(Ibidi) and transfected at a confluency of 50-70% with GFP-Nb and mScarlet-LRRK2 constructs, using JetPEI reagent (Polyplus transfection). […] Data acquisition was done with a ×100 oil-immersion objective with a Zeiss LSM800 confocal laser scanning microscope. Image analysis of z-scan was done using the Zeiss microscope software ZEN.

LRRK2(G2019S) = molecular target: T3, LRRK2(G2019S) (Homo sapiens, UniProt Q5S007, G2019S/M2397T/R50H); experiment: In cellulo phospho-Rab / LRRK2 autophosphorylation assay in HEK293T cells; assay type: cell-based; parameters: key to Functional Group (see FIG. 2d): Group 1: group 1: Nbs that inhibit both LRRK2 autophosphorylation and Rab10 phosphorylation in cells; Group 2: group 2: Nbs that inhibit only Rab10 phosphorylation; Group 3: group 3: Nbs that activate LRRK2 kinase activity; Group 4: group 4: Nbs that have no consistent/clear effect on LRRK2 kinase activity; conditions: for LRRK2 autophosphorylation at position S1292 / influence on LRRK2 kinase activity compared to the controls / Rab10 phosphorylation at position T72: HEK 293T cells co-expressing LRRK2(G2019S), Rab29 and Nb-GFP; for influence on LRRK2 kinase activity compared to the controls: Western blot; for Functional Group (see FIG. 2d): classification by effect on in cellulo LRRK2(G2019S) kinase activity; for Rab10 phosphorylation at position T72: endogenous Rab10
T3 construct: SF tag (FLAG + Twin-Strep); expressed in transfected cells; host or cells: HEK 293T
How it was run: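 Cells co-transfected (PEI) with SF-tagged LRRK2(G2019S), FLAG-HA Rab29 and Nb-GFP fusions, lysed after 48 hrs. Western blot read LRRK2 pS1292 and endogenous Rab10 pT72 with site-specific antibodies, referenced to total LRRK2 and Rab10; ECL chemiluminescence on film.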

endogenous LRRK2 = molecular target: T4, endogenous LRRK2 (Mus musculus, UniProt Q5S006); experiment: Colocalization of GFP-Nbs with endogenous LRRK2 on zymosan-containing phagosomes in RAW264.7 cells; assay type: cell-based; conditions: RAW264.7 cells transfected with GFP-Nbs, zymosan 30 mins, fixed cells
T4 construct: endogenous in cells; host or cells: RAW264.7
Method: RAW264.7 cells were transfected with GFP-fused Nbs and treated with Zymosan for 30 mins. Recruitment of LRRK2 and Nbs to the phagosomes was analyzed by immunofluorescence. FIG. 16A, images for Nb38, Nb22, Nb23, Nb40, No Nb, or Irrelevant (IRR) Nb treatments; FIG. 16B, images for Nb36, Nb42, Nb17, Nb39, Nb1, and Nb6 treatments. Scale bar=10 μm.
as §1
RAW264.7 cells (ATCC® SC-6003™) were transfected with peGFP-Nb constructs using JetOPTIMUS (Polyplus transfection) for 24 hrs and then stimulated with Zymosan particles (Sigma Aldrich) for 30 mins ([…]). Immunostaining for LRRK2 was performed as reported before. Briefly, cells fixed with 4% (w/v) paraformaldehyde for 30 min, followed by treatment with 100% EtOH at −20° C. Sampled were permeabilized with PBS/0.5% Triton X-100 and blocked with 3% BSA. Primary antibodies (rabbit anti-LRRK2, c41-2, Abcam and mouse anti-GFP, G6539, Sigma Aldrich) were diluted in PBS containing 3% BSA and 0.5% Triton X-100 and incubated overnight at 4° C. After three 5-min washes with PBS, secondary fluorescently labeled antibodies (anti-rabbit-Alexa fluor 568 and anti-mouse-Alexa fluor 488, Invitrogen) were added in a similar manner to primary antibodies and incubated for 1 hour at room temperature. Cells were washed twice with 1×PBS and mounted with Fluroshield antifade reagent with DAPI (SigmaAldrich). Images were acquired on Zeiss LSM800 confocal laser scanning microscope. Image analysis of z-scan was done using the Zeiss microscope software ZEN.

T3 sequence (Q5S007 whole entry R50H/G2019S/M2397T): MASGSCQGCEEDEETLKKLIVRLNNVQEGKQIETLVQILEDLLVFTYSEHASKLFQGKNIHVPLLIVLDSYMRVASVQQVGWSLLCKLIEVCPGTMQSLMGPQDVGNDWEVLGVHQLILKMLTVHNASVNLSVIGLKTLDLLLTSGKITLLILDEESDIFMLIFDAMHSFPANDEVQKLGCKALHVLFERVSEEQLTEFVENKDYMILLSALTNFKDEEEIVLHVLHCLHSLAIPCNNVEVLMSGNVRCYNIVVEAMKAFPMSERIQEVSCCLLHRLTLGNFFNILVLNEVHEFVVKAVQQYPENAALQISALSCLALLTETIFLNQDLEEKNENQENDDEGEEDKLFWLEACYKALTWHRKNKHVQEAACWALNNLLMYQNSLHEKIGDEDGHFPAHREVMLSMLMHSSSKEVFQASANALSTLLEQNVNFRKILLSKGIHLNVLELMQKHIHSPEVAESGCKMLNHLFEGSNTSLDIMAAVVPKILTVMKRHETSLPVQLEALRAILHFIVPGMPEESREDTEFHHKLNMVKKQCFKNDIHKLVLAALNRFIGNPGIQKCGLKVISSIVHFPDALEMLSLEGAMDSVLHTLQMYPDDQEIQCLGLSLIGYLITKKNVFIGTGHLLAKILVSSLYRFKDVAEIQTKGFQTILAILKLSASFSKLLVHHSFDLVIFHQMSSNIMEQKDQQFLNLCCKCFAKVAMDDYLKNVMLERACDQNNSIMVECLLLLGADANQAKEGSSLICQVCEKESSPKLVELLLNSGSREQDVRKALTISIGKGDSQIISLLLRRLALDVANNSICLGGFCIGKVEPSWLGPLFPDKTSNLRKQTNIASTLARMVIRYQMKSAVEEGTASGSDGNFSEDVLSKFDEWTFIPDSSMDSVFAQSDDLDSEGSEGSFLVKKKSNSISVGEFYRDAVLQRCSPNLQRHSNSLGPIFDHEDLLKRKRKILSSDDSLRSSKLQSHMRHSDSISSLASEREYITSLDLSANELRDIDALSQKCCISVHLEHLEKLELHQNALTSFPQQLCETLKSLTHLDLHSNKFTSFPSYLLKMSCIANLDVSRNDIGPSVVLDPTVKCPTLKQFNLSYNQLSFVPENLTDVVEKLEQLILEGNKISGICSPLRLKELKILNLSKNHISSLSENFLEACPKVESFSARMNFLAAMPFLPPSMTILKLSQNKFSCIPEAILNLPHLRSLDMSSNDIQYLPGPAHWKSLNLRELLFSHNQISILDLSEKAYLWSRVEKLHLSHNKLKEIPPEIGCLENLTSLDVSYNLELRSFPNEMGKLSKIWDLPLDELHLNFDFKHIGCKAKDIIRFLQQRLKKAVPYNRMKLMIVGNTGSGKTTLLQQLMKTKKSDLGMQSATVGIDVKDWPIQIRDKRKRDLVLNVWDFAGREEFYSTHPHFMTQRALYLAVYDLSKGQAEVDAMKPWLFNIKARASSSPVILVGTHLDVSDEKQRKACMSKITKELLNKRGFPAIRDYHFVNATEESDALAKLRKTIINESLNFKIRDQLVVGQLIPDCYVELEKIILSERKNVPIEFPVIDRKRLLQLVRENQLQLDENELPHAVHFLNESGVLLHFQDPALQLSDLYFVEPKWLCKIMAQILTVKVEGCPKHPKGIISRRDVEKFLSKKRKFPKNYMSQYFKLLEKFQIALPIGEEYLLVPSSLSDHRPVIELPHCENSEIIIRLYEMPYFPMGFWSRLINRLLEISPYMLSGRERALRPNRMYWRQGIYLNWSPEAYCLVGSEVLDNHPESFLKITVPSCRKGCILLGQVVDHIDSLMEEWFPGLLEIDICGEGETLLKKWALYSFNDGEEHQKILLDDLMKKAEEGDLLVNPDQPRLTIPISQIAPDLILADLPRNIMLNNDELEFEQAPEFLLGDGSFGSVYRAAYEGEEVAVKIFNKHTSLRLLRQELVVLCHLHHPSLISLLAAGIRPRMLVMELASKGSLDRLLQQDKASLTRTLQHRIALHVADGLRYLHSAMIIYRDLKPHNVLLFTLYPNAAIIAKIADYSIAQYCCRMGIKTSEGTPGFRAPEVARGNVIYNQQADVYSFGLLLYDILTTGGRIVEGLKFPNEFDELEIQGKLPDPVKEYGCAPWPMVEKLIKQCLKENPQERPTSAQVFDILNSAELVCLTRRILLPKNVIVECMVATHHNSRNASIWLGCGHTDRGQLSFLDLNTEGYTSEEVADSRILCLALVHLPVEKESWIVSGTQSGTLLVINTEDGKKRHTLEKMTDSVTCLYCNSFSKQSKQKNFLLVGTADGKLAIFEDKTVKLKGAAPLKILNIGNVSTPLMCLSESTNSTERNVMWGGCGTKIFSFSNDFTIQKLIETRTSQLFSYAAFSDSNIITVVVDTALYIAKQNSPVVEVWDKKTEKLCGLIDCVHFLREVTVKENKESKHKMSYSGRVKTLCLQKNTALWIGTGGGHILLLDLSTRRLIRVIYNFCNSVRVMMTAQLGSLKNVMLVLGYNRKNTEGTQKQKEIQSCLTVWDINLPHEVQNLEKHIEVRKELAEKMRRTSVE
T1 sequence (Q5S006 whole entry): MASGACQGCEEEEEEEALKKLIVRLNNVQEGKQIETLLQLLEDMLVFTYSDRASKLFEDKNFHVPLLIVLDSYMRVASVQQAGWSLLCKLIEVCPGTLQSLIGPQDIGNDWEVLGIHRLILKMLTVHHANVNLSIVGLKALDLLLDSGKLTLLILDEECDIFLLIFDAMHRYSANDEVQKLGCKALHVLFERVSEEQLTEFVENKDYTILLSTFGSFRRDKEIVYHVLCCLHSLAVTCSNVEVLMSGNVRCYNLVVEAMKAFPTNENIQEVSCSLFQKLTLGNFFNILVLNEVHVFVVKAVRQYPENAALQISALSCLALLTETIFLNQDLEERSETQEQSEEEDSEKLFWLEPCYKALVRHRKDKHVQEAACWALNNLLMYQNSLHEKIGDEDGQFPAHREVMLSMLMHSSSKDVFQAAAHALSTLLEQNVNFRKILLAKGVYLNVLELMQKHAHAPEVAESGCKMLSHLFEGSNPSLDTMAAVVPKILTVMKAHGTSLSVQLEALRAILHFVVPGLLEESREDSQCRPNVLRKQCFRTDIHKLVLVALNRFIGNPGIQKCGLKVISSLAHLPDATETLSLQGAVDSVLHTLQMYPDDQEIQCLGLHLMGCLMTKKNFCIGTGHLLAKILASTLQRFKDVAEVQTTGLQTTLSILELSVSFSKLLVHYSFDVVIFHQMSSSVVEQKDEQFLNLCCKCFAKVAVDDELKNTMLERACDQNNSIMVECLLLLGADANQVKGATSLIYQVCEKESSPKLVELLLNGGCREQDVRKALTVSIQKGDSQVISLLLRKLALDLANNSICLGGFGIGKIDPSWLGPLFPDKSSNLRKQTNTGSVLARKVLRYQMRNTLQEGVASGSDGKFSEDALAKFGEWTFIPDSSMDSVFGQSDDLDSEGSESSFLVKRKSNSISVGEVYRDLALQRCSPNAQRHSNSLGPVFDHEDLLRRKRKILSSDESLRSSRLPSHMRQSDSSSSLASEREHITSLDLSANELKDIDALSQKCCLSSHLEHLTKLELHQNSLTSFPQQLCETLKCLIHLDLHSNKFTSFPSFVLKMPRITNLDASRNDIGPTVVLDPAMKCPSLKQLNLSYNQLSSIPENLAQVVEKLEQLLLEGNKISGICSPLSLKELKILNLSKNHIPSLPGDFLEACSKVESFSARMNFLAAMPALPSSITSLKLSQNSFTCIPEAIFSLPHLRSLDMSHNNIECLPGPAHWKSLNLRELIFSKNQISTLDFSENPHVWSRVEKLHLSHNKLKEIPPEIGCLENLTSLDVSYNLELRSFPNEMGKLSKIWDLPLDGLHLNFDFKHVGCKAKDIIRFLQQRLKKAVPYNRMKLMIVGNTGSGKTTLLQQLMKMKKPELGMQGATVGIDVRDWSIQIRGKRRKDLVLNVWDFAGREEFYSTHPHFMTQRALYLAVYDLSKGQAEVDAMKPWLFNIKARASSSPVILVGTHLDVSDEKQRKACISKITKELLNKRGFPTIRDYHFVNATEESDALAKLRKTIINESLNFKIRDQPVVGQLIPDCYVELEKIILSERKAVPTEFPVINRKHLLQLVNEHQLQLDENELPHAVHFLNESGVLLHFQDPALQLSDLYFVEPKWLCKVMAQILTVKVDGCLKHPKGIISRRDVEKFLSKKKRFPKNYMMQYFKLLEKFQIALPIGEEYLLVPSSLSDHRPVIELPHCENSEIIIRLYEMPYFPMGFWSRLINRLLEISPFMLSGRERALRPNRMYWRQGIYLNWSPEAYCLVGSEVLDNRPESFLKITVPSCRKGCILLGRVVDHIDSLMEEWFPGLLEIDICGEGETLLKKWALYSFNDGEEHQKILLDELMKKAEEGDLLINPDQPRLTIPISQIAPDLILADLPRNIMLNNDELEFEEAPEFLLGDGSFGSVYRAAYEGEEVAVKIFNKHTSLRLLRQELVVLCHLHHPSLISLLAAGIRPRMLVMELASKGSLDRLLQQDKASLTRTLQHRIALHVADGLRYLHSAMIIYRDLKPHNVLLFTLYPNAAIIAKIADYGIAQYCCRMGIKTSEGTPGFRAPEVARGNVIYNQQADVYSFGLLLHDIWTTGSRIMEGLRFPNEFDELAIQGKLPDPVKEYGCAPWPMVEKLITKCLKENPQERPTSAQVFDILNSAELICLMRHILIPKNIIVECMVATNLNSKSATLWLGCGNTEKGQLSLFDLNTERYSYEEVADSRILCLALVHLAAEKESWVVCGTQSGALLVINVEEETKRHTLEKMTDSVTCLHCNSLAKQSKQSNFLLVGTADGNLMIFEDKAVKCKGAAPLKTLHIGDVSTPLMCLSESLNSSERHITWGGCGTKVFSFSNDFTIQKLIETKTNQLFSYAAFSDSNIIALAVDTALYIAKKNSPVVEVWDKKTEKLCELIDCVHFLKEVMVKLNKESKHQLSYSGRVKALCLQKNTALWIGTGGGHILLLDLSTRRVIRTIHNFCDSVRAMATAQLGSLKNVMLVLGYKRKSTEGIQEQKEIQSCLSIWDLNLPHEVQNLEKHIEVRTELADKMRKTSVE
T4 sequence (Q5S006 whole entry): as above
T2 sequence (Q5S007 whole entry R50H/M2397T): as the sequence (Q5S007 whole entry R50H/G2019S/M2397T) above, with S2019G counted along it

Molecule | binding result [1] | effect on MLi-2-induced recruitment of LRRK2 to microtubules (mScarlet-LRRK2) | LRRK2 autophosphorylation at position S1292 (LRRK2(G2019S)) | influence on LRRK2 kinase activity compared to the controls (LRRK2(G2019S)) | Functional Group (see FIG. 2d) (LRRK2(G2019S)) | Rab10 phosphorylation at position T72 (LRRK2(G2019S)) | colocalization with endogenous LRRK2 on phagosomes (endogenous LRRK2)
Nb38 (CA14133)-GFP fusion (VHH, expressed in cells as intrabody; also called GFP-Nb38; fluobody Nb38; not shown: enhanced GFP fused to the C-terminus of the Nb (pEGFP-N1)) VHH: QVQLVESGGGLVQPGGSLRLSCAASGSIRSIATSAWYRQPPGKQRELVAGISSGTTTNYADSVKGRFTISRDNAKNTVYLQMNSLKPEDTAVYYCHAWISGTWISGQGTQVTVSS | binds |  |  |  |  |  | 
Nb17: LRRK2-specific Nanobody, SEQ ID NO: 5 (protein, Nanobody CA13606) VHH: MAQVQLVESGGGLVQPGGSLRLSCAASGSNIGYMAWYRQAPGSQRELVARIASGGSANYADSVKGRFTISRDNVKNTVYLHMNSLKPVDTAVYYCHADAWYNSRWSDYWGQGTQVTVSS |  | rescuing effect is most prominent | inhibiting S1292 phosphorylation at a lesser extent | strongly decreased LRRK2 autophosphorylation and/or Rab10 phosphorylation | Group 2 | inhibit Rab10 phosphorylation | LRRK2 recruitment to phagosomes was slightly detectable
Nb40 (CA14135)-GFP fusion (VHH, expressed in cells as intrabody; also called GFP-Nb40; fluobody Nb40; not shown: enhanced GFP fused to the C-terminus of the Nb (pEGFP-N1)) VHH: QVQLVESGGGLVQPGGSLRLSCVASGTIYAINRMGWYRQAPGKQRELVALITLGGGTNYGDSVKGRFTISRDNAKNTGYLQMNSLKPEDTAVYYCKVESSGYTDVFWGQGTQVTVSS | binds |  |  |  |  |  | 
Nb22 (CA13611)-GFP fusion (VHH, expressed in cells as intrabody; also called GFP-Nb22; fluobody Nb22; not shown: enhanced GFP fused to the C-terminus of the Nb (pEGFP-N1)) VHH: QVQLVESGGGLVQAGGSLRLSCAASGRTFSSYTMGWFRQAPGKEREFVAAIRWSGGSTYYADSVKGRFTISRDNAKNTVYLQMNSLKPEDTAVYYCAASDRGGFIATSGGWMDYWGKGTQVTVSS | binds |  |  |  |  |  | 
Nb23 (CA13612)-GFP fusion (VHH, expressed in cells as intrabody; also called GFP-Nb23; fluobody Nb23; not shown: enhanced GFP fused to the C-terminus of the Nb (pEGFP-N1)) VHH: QVQLVESGGGLVQAGGSLRLSCAASGRTFSRYTMGWFRQAPGKDREFVARITTSGAVTTYADSAKGRFTISRDNAKNTVYLQMNTLKPEDTAVYYCAAGQGQLSSQSRFVDYWGQGTQVTVSS | binds |  |  |  |  |  | 
Nb40: LRRK2-specific Nanobody, SEQ ID NO: 4 (protein, Nanobody CA14135) VHH: MAQVQLVESGGGLVQPGGSLRLSCVASGTIYAINRMGWYRQAPGKQRELVALITLGGGTNYGDSVKGRFTISRDNAKNTGYLQMNSLKPEDTAVYYCKVESSGYTDVFWGQGTQVTVSS |  | rescuing effect is most prominent | inhibiting S1292 phosphorylation at a lesser extent | strongly decreased LRRK2 autophosphorylation and/or Rab10 phosphorylation | Group 2 | inhibit Rab10 phosphorylation | clearly colocalized with LRRK2 on zymosan-containing phagosomes
